Reference: paper PMC9688426, “Comparison of Optical and Electrical Sensor Characteristics for Efficient Analysis of Attachment and Detachment of Aptamer”

Target: thrombin (bovine, UniProt P00735;P00735 318-366;367-625)
Test: graphene oxide FET resistance change; TBA adsorbed on graphene oxide; thrombin detected down to 250 pM within 5 min (detection limit, not Kd); Assay buffer and temperature not given in the material (reagents list PBS pH 7.4 and Trizma base); sections 3.2.1-3.2.3 have no text. GOx, trypsin, lysozyme, ficin and goat anti-mouse IgG were purchased, but no result for them is in the material
Conditions: protein: commercial; copies: 1;1

GGTTGGTGTGGTTGG (ssDNA) [TBA]
binding result: binds
